To fix the notation:
T1: tail-chimeric peptide IhfA3-IhfB2NTHI (nontypeable Haemophilus influenzae …)
T1 construct: also called IHF(NTHI) tail chimeric peptide; IHFNTHI tail chimeric peptide
T1 peptide: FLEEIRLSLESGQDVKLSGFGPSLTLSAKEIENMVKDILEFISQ

T2: native IHFNTHI (integration host factor of nontypeable Haemophilus influenzae) (nontypeable Haemophilus influenzae …, UniProt P43723 1-96; P43724 1-94)
T2 construct: also called NTHI IHF
T2 sequence 1: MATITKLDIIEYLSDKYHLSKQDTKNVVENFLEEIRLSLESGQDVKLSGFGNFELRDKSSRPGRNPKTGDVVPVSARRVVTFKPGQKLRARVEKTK
T2 sequence 2: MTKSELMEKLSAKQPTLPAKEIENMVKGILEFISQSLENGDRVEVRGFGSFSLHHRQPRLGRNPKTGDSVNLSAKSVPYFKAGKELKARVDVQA

B1: humanized anti-tail monoclonal antibody, heavy chain SEQ ID NO: 6 and light chain SEQ ID NO: 11 (antibody, V domains shown)
VH: EVQLVESGGGLVQPGRSLRLSCTASGFTFSRYGMSWVRQAPGKGLEWVATISSGGSYTYYTDSVKGRFTISRDNAKNILYLQMNSLKTEDTAVYYCERHGGDGYWYFDVWGQGTMVTVSS
VL: DIQMTQSPSSLSASVGDRVTITCRASQDISNYLNWYQQKPGKAVKLLIYYTSRLHSGVPSRFSGSGSGTDYTLTISSLQPEDFATYYCQQGNPLRTFGGGTKVEIKR
notes: also called H10215 (11E7.C7 Humanized HC3) + L10214 (11E7.C7 Humanized LC2)
B2: humanized anti-tail monoclonal antibody, heavy chain SEQ ID NO: 5 and light chain SEQ ID NO: 12 (antibody, V domains shown)
VH: B1 VH with Q13K, R16G, T23A, A49S, I78S, K87R, T88A
VL: DIVMTQSPATLSLSPGERATLSCRASQDISNYLNWYQQKPGQAVRLLIYYTSRLHSGIPARFSGSGSGTDYTLTISSLEPEDFAVYFCQQGNPLRTFGGGTKVEIKR
notes: also called H10214 (11E7.C7 Humanized HC2) + L10215 (11E7.C7 Humanized LC3)
B3: humanized anti-tail monoclonal antibody, heavy chain SEQ ID NO: 6 and light chain SEQ ID NO: 12 (antibody, V domains shown)
VH: B1 VH
VL: B2 VL
notes: also called H10215 (11E7.C7 Humanized HC3) + L10215 (11E7.C7 Humanized LC3)

Changes are numbered by the printed parent chain.

For the first assay, the target named is T1, tail-chimeric peptide IhfA3-IhfB2NTHI. The experiment in a line: SPR Biacore 3000, HuMab immobilized, peptide as analyte.
The Kd is a measure of binding affinity in units of concentration. High values mean weaker binding, low ones tighter binding. Broadly, the koff is a measure of how fast the partners let go of each other. By kon is commonly meant the second-order rate constant of association. A low value points to slow association. The molecule B1 displayed a Kd of 67 nM, a koff of 0.0013 s⁻¹ and a kon of 33000 M⁻¹ s⁻¹.
Take B2: the affinity, expressed as Kd, was 23 nM; the koff came to 0.00044 s⁻¹; the kon worked out at 20000 M⁻¹ s⁻¹.
For B3, the Kd stood at 13 nM, the koff was determined as 0.0021 s⁻¹ and the kon came to 160000 M⁻¹ s⁻¹.

The next assay has the same target. As to the kind of experiment: direct ELISA #2, peptide coated (curves reaching equilibrium). On the technique in general: An ELISA detects its analyte on a solid surface through an enzyme-linked reagent.
Broadly, the EC50 is the concentration that produces a half-maximal response. A high value points to lower potency in that assay. B1 came in with a concentration giving a half-maximal response (EC50) of 0.028 µg/mL.
B2 came in with an EC50 of 0.0429 µg/mL.
Molecule B3 returned an EC50 of 0.0294 µg/mL.

For the next assay, the target named is T2, native IHFNTHI (integration host factor …). The experiment in a line: SPR Biacore 3000, HuMab immobilized, IHFNTHI as analyte. In general terms: SPR reads the build-up and loss of mass on a sensor chip optically.
With B1, the Kd is around 14.8 nM, the koff worked out at 0.00068 s⁻¹ and the on-rate constant (kon) came out at 46000 M⁻¹ s⁻¹.
For B2 the same measures were 39 nM, 0.0012 s⁻¹ and 33000 M⁻¹ s⁻¹.
For the molecule B3, the Kd was around 143 nM, the koff was determined as 0.0011 s⁻¹ and the kon was found to be 7700 M⁻¹ s⁻¹.

In the next assay the target is T1, tail-chimeric peptide IhfA3-IhfB2NTHI. As to the kind of experiment: SPR Biacore 3000, peptide immobilized, HuMab as analyte.
B1 displayed a Kd of 1 nM, an off-rate (koff) of 0.00016 s⁻¹ and a kon of 160000 M⁻¹ s⁻¹.
On to B2, for which the Kd was 9.1 nM, the koff was determined as 0.00077 s⁻¹ and the kon came out at 85000 M⁻¹ s⁻¹.
B3: the Kd amounted to 2.4 nM, the off-rate (koff) was 0.0006 s⁻¹ and the kon is 250000 M⁻¹ s⁻¹.

Another assay has the same target. As to the kind of experiment: direct ELISA #1, peptide coated (curves not reaching equilibrium).
As to B1, the EC50 came to 0.011 µg/mL.
For the molecule B2, a half-maximal response (EC50) required 0.015 µg/mL.
In turn, B3 showed an EC50 of 0.008 µg/mL.

(Values after patent publication US20210206841A1 (RESEARCH INSTITUTE AT NATIONWIDE CHILDREN S HOSPITAL, published 2021).)
